# Laboratory results published in the nanobody polyreactivity screen of Harvey et al. (2022).
# Experiment: yeast display, Sf9 membrane polyspecificity reagent, FACS + sequencing; frameworks hold sequencing errors
# In short: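 Galactose induction of a Saccharomyces cerevisiae BJ5465 synthetic nanobody display library ran 36–48 hours. The cells were then stained for 1 hour at 4 °C with 10% biotinylated, detergent-solubilized Sf9 membrane reagent, pulled down on streptavidin microbeads and FACS-sorted into low and high (top ~1%) gates on expression and reagent-binding fluorescence. Labels for polyreactivity follow the gate of origin.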
row,Sequence,polyreactivity (PSR sort gate)
1,QVQLVETGGGLVQAGGSLRLSCAASGSTFPAYTMGWYRQAPGKERELVAAITTGGRTYYADSVKGRFTISRDNAKNTVYLQMNSLKPEDTAVYYCAAKRYCYRSLPYYGIHGWGQGTQVTVSS,high polyreactivity
2,QVQLVESGGGVVQAGGSLRLSCAASGFTFWRYAMGWSRQAPGKDRELVAVITWSGTRTYYADSVKGRFTLSRDTAKITVYVQMNSLNPDAPAVYYCAAYITDVAGRAYDYWGQGTQVTVSS,high polyreactivity
3,QVRLVESGGGLVQAGGSLRLSCAASGSTFQINAMGWYRQAPGKEREFVAAITVSSGSTYYADSVKGRFTISRDNAKNTVYLQMNSLKPEDTAVYYCAATSKPLGLQTYGYWGQGTQVTVSS,low polyreactivity
4,QVQIVESGGGLVQAGGSLRLSCAASGRISEANAMGRYRQATWKERELVAAIDFSDGSTYYADSVKGRFTISRDNAKNTVYLQMNSLKPEDTAVYYCAADDQYYPYDYWGLGTQVTVSS,low polyreactivity
5,QVQLVESGGGLVQAGGSLRLSCAASGRTLRLYAMGWYRPAPGKERELVASITGRGGSTYYADSVKGRFTISRDNAKNTVYLQMNSLKPEDTAVYYCAKLPLSTAMGYWGQGTQVTVSS,low polyreactivity
6,QVQLVESGGGLVQAGGSLRLSCAASGLIFYKNTMGWYRQAPGKERELVATITGRGGRTYYADSVKGRFTISRDIAKNSVYFQMNSLKPEDTAVYYCAARNQGRGYYWGQGTQVTVSS,high polyreactivity
7,QLQLVESGGGLDQAGGSLRLRCASSARIFSGYAIGWYIKAPGKERELVAAITSRSGSTYYADSVKGRFTISRDNAKNSVYFQMNSLKPEDTAVYYCAAEYVRFYWYTSDYWGQGTQVTVSS,low polyreactivity
8,QGQLVESGGGLVQAGGSLRLSCAASGSTFLTNTMGWYRHAPGKERELVAAITLRGGRTYYADSVKGRFTISRDNAKNTVYVQMNSLKPEDTAVYYCTARNYYYTSDRDYWGQGTQVTVSS,low polyreactivity
9,QVQLVESGGGLVQAGGSLRLSCAASGRIFAWNAMGWYRQAPGKERELVARIRVSGGRTYYADSVKGRFTISRDNAKNTVYLQMKSLKPDDTAVYYCNAYLRSGSMDYWGQGTQVTVSS,high polyreactivity
10,QVQLVESGGGLVQAGGSLRLSCAASGRIFRYYAMGWYGQAPGKEREFVAAINSSGVNTYYADSVKGRFTISRDNAKNTVYLQMNSLKPEDTAVYYCAFLGMDYWGQGTQVTVSS,high polyreactivity
11,QVQLVESGGGLVQAGGSLRLSCAASGIIFPSYVMGWYRQAPGKERELVAVITWSGGSTYYADSVKGRFTISRDNAKNTVYLQMNSLKPEDTAVYYCARRRRWVHSFDYWGQGTQVTVSS,high polyreactivity
12,QVQLVESGGGLVQAGGSLRLSCAASGFTFAGYAMGWNRQAPGKERELVAASNRGGSTYYADSVKGRFTSSRDNAKHTVYLQRNSLKPEDTAVYYCAKAQRFYGGRMGYWGQGTQVTVSS,low polyreactivity
13,QVQLVESGGGLVQAGGSLRLSCAASGSIFPGNAMGWYRQAPGKERELVAVIDFSGASTYYADSVKGRFTISRDNAKNTVYLQMNSLKPEDTADYWGQGSQVTVSS,low polyreactivity
14,QVQLVESGGGLVQAGGSIRLTCAASGSIFYHYAMGWYRQAPAKERELVADITQSGGTTDYADSVKGRFTISRDNAKNTVYLQMNSLKTEDTAVYYCAADGDTTSPTYYIFWYGEFDYCGQGTQVTVSS,low polyreactivity
15,QVQLVESGGGLVQAGGSLRLSCAASGYTFYVYTMGWYRQAPGKERELVAAISGSGTSTYYADSVKGRFTISRDNAKNTVYLQMNSLKPEDTAVYYCAAEDYSRDVYSYDYWGQGTQVTVSS,low polyreactivity
16,QVQLVESGGGLVQAGVSLRLSCAASGSIFGRYAMGWYRQAPGKERELVAAINDDSGRTYYADSVKGRFTISRDNAKNTVYLQKNSLKPEDTAVYYCATGRQSEYDYWGQGTQVTVSS,high polyreactivity
17,QVQLVESGGGLVQAGGSLRLSCAASGFIFAHNAMGWYRQAPGKERELVADITRDGNTYYADSVKGRFTISRDNAKNTVYLQMNSLKTEDTAVYYCAADVSTTWYWWGQFEFEYWGQGTQVTVSS,high polyreactivity
18,QVQLVESGGGLVQAGGSLRLSCAASGYTFRGYAMGWSRQAPGKERELVAAISWSGGRTYYADSVKGRFTISRDNAKYTVYLQMNSLKPEDTAVYYCAAPGQHSWGQGTQVTVSS,high polyreactivity
19,QVQLVESGGGLVQAGGSLRLSCAASGFTFSIYAMGWYRQAPGKERELVAAISYRGTSTYYADSVKGRFTISRDNAKNTVYLQMNSLKPEDTAVYYCNKVSSPFVYTVYYWGQGTQVTVSS,high polyreactivity
20,QVQLVESGGGLVQAGGSLRLSCAASGITSSLNAMGWYRQAPGKERELVAAISWRGGSTYYADSVKGRFTISRDNAKNTVNLRMHSLKPEDTAVYYCNVVKRSFRYDYWGQGTQVTVSS,high polyreactivity
21,QVQLVESGGGLVQAGGSLRLSCAASGRTFYSNAMGWYRQAPGKERELVAAITSTDDSTYYADSVKGRFTISRDNAKNTVNLQMYSLKPEYTAVYYCNTDGLIAIRGLWWFEFDYWGQGTQVTVSS,low polyreactivity
22,QVQLVESGGGLVQAGGSLRLSCAASGFIFSIYAMGLYRQAPGTERELVAGIDNGGGTYYADSVKGRFTISRDNAKNTVYLQMNSLKPEDTAVYYCAADTYSIGELYDYWGQGTQVNVSS,low polyreactivity

row,Sequence,polyreactivity (PSR sort gate)
1,QVQLVESGGGLVQAGGSLRLSCAASGRTITRYTMGWYRQAPGKERELVAAIRYSGGSTYYADSVKGRFTISRDTAKNTIYLQMNSLKPEDTAVYYCAARSYYYGFLYSYDYWGQGTQVTVSS,low polyreactivity
2,QVQLVESGGGLVQAGGSLRLSCAASGNTFRYYAMGWYRQAPGKERELVAAISGDGGSTYYADSVKGRFTISRDNAKNTVYLQMNSLKPEDTAVYYCNKAGRRRYRESDYWGQGTQVTVSS,high polyreactivity
3,QDQLVESGGGLVQAGGSLRLSCAASGRTFRKYAMGWYRPAPGKEREFVAAITSSGGSTYYADSVKGRYTISRDNAKNTVYLQMNSLKPEDTAVYYCAAARTSTGTYRYEYWGQGTQVTVSS,high polyreactivity
4,QVQLVESGGGLVQAGGSLRLSCAASGSIFPRNAMGWYRQAPGKERELVAAITSSGGTTYYADSVKGRFTISRDNAKNTVYLQMISLKPEDTAVYYCNAAYPYSSVGRDYWGQGTQVTVSS,high polyreactivity
5,QVQLVESGGGLVQAGGSLRLSCAASRRIIGAYAMGWDRQAPGKEWELVARISWSGGTTYYADSVKGRFPISRDNAKNTVYLQMNSLKPEDTAVYYCAARYSYYVTGGISKYDYWGQGTQVTVSS,low polyreactivity
6,QVQLVESGGGLVQAGRSLRLSCAASGRTFYHYAMGWYRQAPGKERELVAAIDWSTASTYYADSVKGRFTISRDNAKNTVYLQMNSLIQEDTAVYYCATDSAILINFVLYDYWGQGTQVTVSS,low polyreactivity
7,QVQLVDSGGGLVQAGGSLRLSCPASGSTFSRYAMGWYRQAPGKERELVAAISRSGGTTYYADSVKGRFTISRDNAKNTVYLQMNSLKPEDTAVYYCNDRGRYEYGYWGQGTQVTVSS,high polyreactivity
8,QVQLVESGGGLVQAGGSLRLSCAASGRTFAYNAMGWYRPAPGKERELVAAITGSGGRTYYADSVKGRFTISRDNAKNTVYLQMNSLKAEDTAVYYCAVGLPSRYDYWGQGTQVTVSS,low polyreactivity
9,QDQLVESGGGLVQAGGSLRLSCAASGSTLYAYAMGWYRQAPGKERELVAAISFSTTSTYYADSVKGRFTISRDYEKNTVYLQMNSLKPEDTAVYYCAAEYWYYWEYEYWGLGTQVTVSS,high polyreactivity
10,QVQLVESGGGLVQAGGSLRLSCAASGITFGDNAMGWYRQAPGKERELVAAITLSDVDTYADSVKGRFTISRDNAKNTVYLQMNSLKPEDTAVYYCAADYYAHQDYRFDYWGQGTQVTVSS,low polyreactivity
11,QVQLVESGGGLVQAGGSLRLSCAASGSIFVRYAMGWYRQAPGKERELVAAFTSSAGSTYYADSVKGRFTISRDNAKNTVYLQMNSLKPEDTAVYYCAAVRYYPSKFYYWGQGTQVTVSS,high polyreactivity
12,QVQLVESGGGLVQAGGSLRLRCAASGFTLLWNSMGWYRQAPGKEREFVAVISSGGSTNYADSVKGRFTISRDNAKNTVYLQMNSLKPEDTAVYYCATRRPSSSSAAAWFYYWGQGTQVTVSS,low polyreactivity
13,QVQLVESGGGLVQAGGSLRLSCAASGSTFLVYARGWYRQAPGKERELVADITSRGGSTYYADSVKGRFTISRDNAKNTVYLQMNSLKPEDTAVYYCAALKRVVLFDYWGQGSQVTVSS,low polyreactivity
14,QVQLVESGGGLVQAGGSLRLSCAASGSIFVNYAIGWYRQAPGKERELVAAISRSGGRTYYADSVKGRFTISRDNAMNSVYLQMNSLKPEDTAVYYCNVYPVLRTIEGDYWGQGTQVTVSS,high polyreactivity
15,QVQLVESGGGLVPAGGSLRLSCAASGSIFVGYAMGWYRQAPGKERELVADITVGGGSTFYADSVKGRFTISRDNAKNTVYLQMTSLKPEDTAVYYCAKYAGVYEYDYWGQGTQVTVSS,low polyreactivity
16,QVQLVESGGGLVQAGGSLRLSCAASGRIFFHYAMGWYRQPPGKERELVAVISSSGGITYYADSVKGRFTISRDNAKNTVYLQMNSLKPEDTAVYYCNTVPRPFDRYGYWGQGTQVTVSS,low polyreactivity
17,QVQLVESGGGLVQAGGSLRLSCAASGRTFYANAMGWYRQAPGKERELVAAISSSGSRTYYADSVKGRFTISRDNAKNTVYLQMNSLKPEDTAVYYCNAAAPYLTRQHWARDYWGQGTQVTVSS,high polyreactivity
18,QVQLVESGGGLDQAGGSLRLSCAASGSTFYYNTMGWYRQAPGKERELVAAISWRGVSTYYADSVKGRFTISRDNAKNTVYLQMNSLKPEDTAVYYCNAVHHYPEHIGGGYWGQGTQVTVSS,low polyreactivity
19,QVQLVESGGGLVQAGGSLRLSCDASGSTFYWYAMGWYRQAPGKERELVAAITYSSGRTYYADSVKGRFTISRDNAKNTVYLQMNSLKPEDTAVYYCGWSALNGYDYWGQGTQVTVSS,high polyreactivity
20,QVQLVESGGGLVQAGGSLRLSCAASGRIFDQYALGGSRQAPGKERELVAAITSGGSTYYADSVKGRFTISRDNAKNTVYLQMNSLKPEDTAVYYCAAEWQWYGYVLYKYYYWGQGTQVTVSS,high polyreactivity
21,QVQLVESGGGLVQAGGSLRLSCAASGSTFPDYAMGWYRQAPGKERELVAAISWSGGSTYYADSVKGRFTISRDNAKNTVYLQMNSLKPEDTAVYYCAAGYSPPKPYSGGYYYWGQGTQVTVSS,low polyreactivity
